Data published in US6344321, “Nucleic acid ligands which bind to hepatocyte growth factor/scatter factor (HGF/SF) or its receptor c-met” (Gilead Sciences, Inc.).

Tests used:
[1] = biological target: T1, HGF (hepatocyte growth factor/scatter factor) (UniProt P14210;P14210 P14210:32-494,P14210:495-728); experiment: filter; 40N8 hitchhiker; conditions: tags: R&D Systems
Protocol: (§1) In binding reactions, RNA concentrations were kept as low as possible—between 1 and 20 pM—to ensure equilibrium in conditions of protein excess. Oligonucleotides were incubated for 15 minutes at 37° C. with varying amounts of the protein in 43 µl of the binding buffer. Thirty-two microliters of each binding mixture placed on pre-wet 0.45 µm nitrocellulose filters under suction. Each well was immediately washed with 0.5 ml binding buffer. The amount of radioactivity retained on the filters was quantitated by imaging. The radioactivity that bound to filters in the absence of protein was used for background correction. The percentage of input oligonucleotide retained on each filter spot was plotted against the corresponding log protein concentration. The nonlinear least square method was used to obtain the dissociation constant (K_d; reference Jellinek, Lynott et al. 1993, Proc. Natl. Acad. Sci. USA. 90:11227–31).

[2] = biological target: T1, HGF (hepatocyte growth factor/scatter …); experiment: filter; HBSMC, 37C; worse than random pool; conditions: tags: R&D Systems
Protocol: as §1

[3] = biological target: T1, HGF (hepatocyte growth factor/scatter …); experiment: filter; one or two 5' G; no inhibition of HGF in cells without PEG; conditions: tags: R&D Systems
Protocol: as §1

[4] = biological target: c-met extracellular domain-IgG1-His6 (Homo sapiens, UniProt P08581 P08581:25-932); experiment: filter; biphasic; lower affinity Kd ~5 nM; conditions: chain copies: 2
[5] = biological target: T1, HGF (hepatocyte growth factor/scatter …); experiment: filter; no significant binding retained; conditions: tags: R&D Systems
Protocol: as §1

[6] = biological target: T1, HGF (hepatocyte growth factor/scatter …); experiment: filter; HBSMC, 37C; table cites SEQ 15, which is a template in the listing; conditions: tags: R&D Systems
Protocol: as §1

[7] = biological target: T1, HGF (hepatocyte growth factor/scatter …); experiment: filter; 36mer; PEGylated form inhibits HGF in cells; conditions: tags: R&D Systems
Protocol: as §1

[8] = biological target: T1, HGF (hepatocyte growth factor/scatter …); experiment: filter; HBSMC, 37C; SEQ 43 in listing has a deviating 3' end; conditions: tags: R&D Systems
Protocol: as §1

[9] = biological target: T1, HGF (hepatocyte growth factor/scatter …); experiment: filter; HBSMC, 37C; SEQ 108 in listing duplicates SEQ 107, table sequence used; conditions: tags: R&D Systems
Protocol: as §1

T1 sequence (P14210 32-494, chain 1 of 2): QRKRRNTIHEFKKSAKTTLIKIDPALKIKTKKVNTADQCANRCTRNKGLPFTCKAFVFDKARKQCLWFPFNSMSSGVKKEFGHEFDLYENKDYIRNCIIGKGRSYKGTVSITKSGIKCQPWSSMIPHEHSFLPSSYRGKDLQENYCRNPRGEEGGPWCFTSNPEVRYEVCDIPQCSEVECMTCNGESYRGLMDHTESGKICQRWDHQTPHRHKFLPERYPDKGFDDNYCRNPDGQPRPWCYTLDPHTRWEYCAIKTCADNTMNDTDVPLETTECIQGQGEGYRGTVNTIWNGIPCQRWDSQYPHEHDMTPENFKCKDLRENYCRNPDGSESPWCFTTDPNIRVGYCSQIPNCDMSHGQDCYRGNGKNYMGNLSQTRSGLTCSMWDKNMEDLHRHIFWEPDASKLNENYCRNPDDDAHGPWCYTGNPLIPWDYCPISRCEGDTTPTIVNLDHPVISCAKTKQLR
T1 sequence (P14210 495-728, chain 2 of 2): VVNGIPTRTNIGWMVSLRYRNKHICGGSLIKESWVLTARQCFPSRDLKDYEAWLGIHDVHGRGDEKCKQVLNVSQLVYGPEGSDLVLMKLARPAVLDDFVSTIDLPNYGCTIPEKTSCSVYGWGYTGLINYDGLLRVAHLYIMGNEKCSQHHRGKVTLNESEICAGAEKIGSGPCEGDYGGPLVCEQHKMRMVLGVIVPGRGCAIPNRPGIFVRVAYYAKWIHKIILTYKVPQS
c-met extracellular domain-IgG1-His6, sequence (P08581 25-932, one chain of several): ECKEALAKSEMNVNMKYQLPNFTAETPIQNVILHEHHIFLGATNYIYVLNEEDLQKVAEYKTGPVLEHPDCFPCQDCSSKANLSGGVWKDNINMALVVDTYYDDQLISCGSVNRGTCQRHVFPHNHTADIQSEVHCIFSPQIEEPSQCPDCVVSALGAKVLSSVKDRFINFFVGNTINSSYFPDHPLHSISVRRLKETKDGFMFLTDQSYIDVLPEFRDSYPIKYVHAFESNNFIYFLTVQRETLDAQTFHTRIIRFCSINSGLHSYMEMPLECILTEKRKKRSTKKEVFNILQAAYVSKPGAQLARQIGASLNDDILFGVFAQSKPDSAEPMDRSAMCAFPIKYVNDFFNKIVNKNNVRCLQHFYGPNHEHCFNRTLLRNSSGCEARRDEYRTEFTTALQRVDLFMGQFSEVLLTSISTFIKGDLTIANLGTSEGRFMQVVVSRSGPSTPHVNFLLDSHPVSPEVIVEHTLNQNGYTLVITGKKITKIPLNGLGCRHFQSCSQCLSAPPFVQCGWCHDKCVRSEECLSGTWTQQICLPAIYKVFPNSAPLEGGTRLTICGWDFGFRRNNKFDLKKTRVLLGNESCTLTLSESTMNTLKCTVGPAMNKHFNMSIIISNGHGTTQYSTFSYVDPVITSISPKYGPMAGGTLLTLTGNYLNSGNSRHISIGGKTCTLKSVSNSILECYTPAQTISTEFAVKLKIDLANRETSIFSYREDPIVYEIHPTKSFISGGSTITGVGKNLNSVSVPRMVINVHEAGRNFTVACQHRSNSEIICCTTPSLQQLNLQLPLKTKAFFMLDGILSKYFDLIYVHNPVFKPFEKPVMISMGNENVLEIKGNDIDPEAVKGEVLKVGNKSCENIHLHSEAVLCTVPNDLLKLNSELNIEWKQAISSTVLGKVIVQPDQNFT

B1: 10-68 (ssRNA)
RNA: GGGAGAUAAGAAUAAACGCUCAACGCGGGAUUCUCUGAGGACGAGGCACGUGUGGGUAAUUCGUUCGACAGGAGGCUCACAACAGGC
modifications: 2'-F pyrimidines
In the case of B1, the Kd [1] is reported as 1 nM.

B2: 10-35 (ssRNA)
RNA: GGGAGAUAAGAAUAAACGCUCAAAUCCAAAUUCUGGUCAUGAGGCGCUGCAGAUACUGCUGCGUUCGACAGGAGGCUCACAACAGGC
modifications: 2'-F pyrimidines
Binder B2 has a Kd [1] of 2.33 nM.

B3: 8-151 (ssRNA)
RNA: GGGAGGACGAUGCGGAGGACUAAUCCCUAAGGAAUAGCUUGCCCGCAGACGACUCGCCCGA
modifications: 2'-F pyrimidines
In the case of B3, the Kd [2] is reported as 8 nM.

B4: 10-56 (ssRNA)
RNA: GGGAGAUAAGAAUAAACGCUCAACCUUAGGGCUCCCAAAAAUCGGGCCCGUCGGGCCGAUCACUUCGACAGGAGGCUCACAACAGGC
modifications: 2'-F pyrimidines
With B4 the Kd [1] was 0.28 nM.

For GGAAUCACAGGAAUCAACUUCUAUUCCCGCCCCA (ssRNA, 2'-F pyrimidines) [Tr51], the Kd [3] was 0.06 nM.

B5: 7c-1 (ssRNA)
RNA: GGGAGGACGAUGCGGUUUGACUAUGUCUGACGGGUCUGUGGUCAAUUCCGCCCCCAGACGACUCGCCCGA
modifications: 2'-F pyrimidines
In the case of B5, the Kd [4] is reported as roughly 0.05 nM.

GGGAGGACGAUGCGGGCGGCUCGAUGUCGUCUUAUCCC (ssRNA, 2'-F pyrimidines) [8-17 38mer]: no binding [5].

B6: 8-117 (ssRNA)
RNA: GGGAGGACGAUGCGGUCCCAAGUUUCAGGGCGUUUCUUCCUCGUCCAGACGACUCGCCCGA
modifications: 2'-F pyrimidines
B6 showed a Kd [6] of 0.13 nM.

B7: 10-4 (ssRNA)
RNA: GGGAGAUAAGAAUAAACGCUCAAUUGGGUCGGGACUCGAAAGGAUUUGAUAGGAUACAUGAAUUUCGACAGGAGGCUCACAACAGGC
modifications: 2'-F pyrimidines
Work on B7 yielded a Kd [1] of 0.61 nM.

With GGACGAUGCGGCGAGUGCCUGUUUAUGUCAUCGUCC (ssRNA, 2'-F pyrimidines; NX22354 formulation carries 5'-40K PEG and 3'-dT cap) [NX22354 (36mer of 8-102)] the Kd [7] was 0.1 nM.

B8: 10-38 (ssRNA)
RNA: GGGAGAUAAGAAUAAACGCUCAAUCUGCGGACGGUGAGGUUAAGUUGCAACGACUGCUUGGCGUUCGACAGGAGGCUCACAACAGGC
modifications: 2'-F pyrimidines
In the case of B8, the Kd [1] is reported as 7.38 nM.

GGACGAUGCGGGCGGCUCGAUGUCGUCU (ssRNA, 2'-F pyrimidines) [8-17 28mer]: no binding [5].

B9: 11-106 (ssRNA)
RNA: GGGAGGACGAUGCGGCGAUGAUGCCUGUUUAUGUCGAUGUCCCCCCAGACGACUCGCCCGA
modifications: 2'-F pyrimidines
B9 was tested, and the Kd [8] was 0.12 nM.

B10: 10-67 (ssRNA)
RNA: GGGAGAUAAGAAUAAACGCUCAAUCGGGCUUGGAUGUGGACGUGUAUUUCUAGCUGUGUACGCUUCGACAGGAGGCUCACAACAGGC
modifications: 2'-F pyrimidines
Binder B10 has a Kd [1] of 0.64 nM.

B11: 10-17 (ssRNA)
RNA: GGGAGAUAAGAAUAAACGCUCAAAACCCUGUUGGCGUGACGUCCCGACCCUCCUUCGACAGGAGGCUCACAACAGGC
modifications: 2'-F pyrimidines
In the case of B11, the Kd [9] is reported as 0.56 nM.
